Measurements from patent US20050112564A1 (published 2005).
No end group written: not given here. *: point of attachment. FITC = O=C1OC2(c3ccc(O)cc3Oc3cc(O)ccc32)c2ccc(NC(=S)*)cc21

Target: T1, avidin (UniProt P02701 25-152)
T1 construct: also called avidin of a bar code 01
Experiment: FITC-peptide incubated with protein-coated bar-coded carriers; fluorescence read in flow tube
Protocol: Carriers of 15 mm in length having a bar code 01 or 02 were prepared by using polymethylmethacrylate fibers as a raw material and introducing carboxyl groups on the surface thereof in the same manner as in Example 1. As in Example 1, 50 carriers having a bar code 01 were dispersed in 10 ml HEPES buffer, 100 μmol hydroxysuccinimide was added thereto, followed by the addition of 100 μmol WSC to succinimidate carboxyl groups, and after washing the carriers with the same buffer, 10 ml of a buffer containing 1 μmol/ml avidin was immediately added thereto to immobilize avidin on the carriers. The carriers were subjected to blocking in 1% BSA solution, and washed with distilled water to prepare carriers to which avidin is bound and which have a bar code 01.
Similarly, a FITC-labeled polypeptide having the […] shown in SEQ ID NO: 7 which consists of 15 amino acids without containing avidin-binding peptide sequence and having FITC at the amino-terminus was synthesized and dissolved in PBS containing 0.1% BSA at a concentration of 2 nmol/ml to prepare a test sample solution.
An apparatus shown in FIGS. 1 and 2 was prepared, and the bar code and fluorescence were detected while passing the solutions prepared in (3) above through a hollow tube in the detection device. As the bar code reader, a hand laser scanner SL-114 (product of Nichiei Intec) was used. […]

T1 sequence (P02701 25-152 limits assumed): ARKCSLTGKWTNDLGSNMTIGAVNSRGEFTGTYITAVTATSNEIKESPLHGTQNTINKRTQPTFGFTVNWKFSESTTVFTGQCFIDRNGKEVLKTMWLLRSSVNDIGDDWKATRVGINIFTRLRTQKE

B1: FITC-labeled polypeptide of SEQ ID NO: 7 (15 amino acids without avidin-binding peptide sequence) (peptide)
peptide: {FITC}-ISFENTWLWTSPFSS
  binding result: no binding
